# Reference: patent publication US20260217800A1
# Biological target: full length gp41 HIV protein (Abcam) (human immunodeficiency virus-1 (HIV-1))
# Assay: titration ELISA, wells coated with 1 µg/mL antigen, 2F5 in 4-fold dilutions from 30 µg/mL
substance,measurement,value
2F5 broadly neutralizing human monoclonal antibody,EC50 (read off the curve),0.1 µg/mL
